Measured values: patent publication US20240124585A1 (SUTRO BIOPHARMA, published 2024)
Substitutions are numbered along the chain they refer to. Names and notes keep the numbering of the source.

B1: 2037-B10_Hc-A59D (antibody, human IgG1, lambda, V domains shown)
VH: EVQLVESGGGLVKPGGSLRLSCAASGFTFNKYAMNWVRQAPGKGLEWVARIRTKYNNYDTYYADSVKDRFTISRDDSKNTAYLQMNSLKTEDTAVYYCVRHGNFGNSYISYWAYWGQGTPVTVSS
VL: QTVVTQEPSLTVSPGGTVTLTCGSSTGAVTSGYYPNWLQQKPGQAPRGLIGGTKFLAPGTPARFSGSLLGGKAALTLSGVQPEDEAEYYCALWYSNRWVFGGGTQLTVTG
notes: human IgG1, lambda; also called SRP 2037 A59D; 2037-B10_VH-A59D
B2: 2037-B10_Hc-K54D (antibody, human IgG1, lambda, V domains shown)
VH: B1 VH with K54D, D59A
VL: B1 VL
notes: human IgG1, lambda; also called SRP 2037 K54D; 2037-B10_VH-K54D
B3: 2037-B10_Hc-G105D (antibody, human IgG1, lambda, V domains shown)
VH: B1 VH with D59A, G105D
VL: B1 VL
notes: human IgG1, lambda; also called SRP 2037 G105D; 2037-B10_VH-G105D
B4: 2037-B10_Hc-K31D (antibody, human IgG1, lambda, V domains shown)
VH: B1 VH with K31D, D59A
VL: B1 VL
notes: human IgG1, lambda; also called SRP 2037 K31D; 2037-B10_VH-K31D
B5: 2037-B10_Hc-N103D (antibody, human IgG1, lambda, V domains shown)
VH: B1 VH with D59A, N103D
VL: B1 VL
notes: human IgG1, lambda; also called SRP 2037 N103D; 2037-B10_VH-N103D
B6: 2037-B10_Hc-N56D (antibody, human IgG1, lambda, V domains shown)
VH: B1 VH with N56D, D59A
VL: B1 VL
notes: human IgG1, lambda; also called SRP 2037 N56D; 2037-B10_VH-N56D
B7: 2037-B10_Hc-N106D (antibody, human IgG1, lambda, V domains shown)
VH: B1 VH with D59A, N106D
VL: B1 VL
notes: human IgG1, lambda; also called SRP 2037 N106D; 2037-B10_VH-N106D
B8: 2037-B10_Lc-N96D (antibody, V domains shown)
VH: not shown
VL: B1 VL with N96D
notes: human IgG1, lambda; also called SRP 2037 N96D; 2037-B10 VL-N96D
B9: 2037-B10_Hc-N30D (antibody, human IgG1, lambda, V domains shown)
VH: B1 VH with N30D, D59A
VL: B1 VL
notes: human IgG1, lambda; also called SRP 2037 N30D; 2037-B10_VH-N30D
B10: 2037-B10_Hc-F27D (antibody, human IgG1, lambda, V domains shown)
VH: B1 VH with F27D, D59A
VL: B1 VL
notes: human IgG1, lambda; also called SRP 2037 F27D; 2037-B10_VH-F27D
B11: 2037-B10_Hc-Y108D (antibody, human IgG1, lambda, V domains shown)
VH: B1 VH with D59A, Y108D
VL: B1 VL
notes: human IgG1, lambda; also called 2037-B10_VH-Y108D
B12: 2037-B10_Lc-W93D (antibody, V domains shown)
VH: not shown
VL: B1 VL with W93D
notes: human IgG1, lambda; also called SRP 2037 W93D; 2037-B10 VL-W93D
B13: SRP 2037-B10 F104D/R97D (antibody, human IgG1, lambda, V domains shown)
VH: B1 VH with D59A, F104D
VL: B1 VL with R97D
notes: human IgG1, lambda
B14: SRP 2037-B10 F29D/R97D (antibody, human IgG1, lambda, V domains shown)
VH: B1 VH with F29D, D59A
VL: B1 VL with R97D
notes: human IgG1, lambda
B15: 2037-B10_Lc-R97D (antibody, V domains shown)
VH: not shown
VL: B1 VL with R97D
notes: human IgG1, lambda; also called SRP 2037 R97D; 2037-B10 VL-R97D
B16: SRP 2037-B10 S107D/R97D (antibody, human IgG1, lambda, V domains shown)
VH: B1 VH with D59A, S107D
VL: B1 VL with R97D
notes: human IgG1, lambda
B17: SRP 2037-B10 Y61D/R97D (antibody, human IgG1, lambda, V domains shown)
VH: B1 VH with D59A, Y61D
VL: B1 VL with R97D
notes: human IgG1, lambda
B18: SRP 2037-B10 Y55D/R97D (antibody, human IgG1, lambda, V domains shown)
VH: B1 VH with Y55D, D59A
VL: B1 VL with R97D
notes: human IgG1, lambda
B19: SRP 2037-B10 Y55D/LC5 (antibody, human IgG1, kappa, V domains shown)
VH: B1 VH with Y55D, D59A
VL: DTQVTQSPSLSASVGDRVTITCGSSTGAVTSGYYPNWLQQKPGQAPRGLIGGTKFLAPGVPSRFSGSGSGTDFTLTISSLQPEDFATYYCALWYSNRWVFGGGTKVEIKR
notes: human IgG1, kappa
B20: SRP 2037-B10 Y61D/LC5 (antibody, human IgG1, kappa, V domains shown)
VH: B1 VH with D59A, Y61D
VL: B19 VL
notes: human IgG1, kappa
B21: SRP 2037-B10 S107D/LC5 (antibody, human IgG1, kappa, V domains shown)
VH: B1 VH with D59A, S107D
VL: B19 VL
notes: human IgG1, kappa
B22: SRP 2037-B10 F104D/LC5 (antibody, human IgG1, kappa, V domains shown)
VH: B1 VH with D59A, F104D
VL: B19 VL
notes: human IgG1, kappa
B23: 2037-B10_Lc-S95D (antibody, V domains shown)
VH: not shown
VL: B1 VL with S95D
notes: human IgG1, lambda; also called SRP 2037 S95D; 2037-B10 VL-S95D
B24: 2037-B10_Hc-R50D (antibody, human IgG1, lambda, V domains shown)
VH: B1 VH with R50D, D59A
VL: B1 VL
notes: human IgG1, lambda; also called SRP 2037 R50D; 2037-B10_VH-R50D
B25: 2037-B10_Lc-Y94D (antibody, V domains shown)
VH: not shown
VL: B1 VL with Y94D
notes: human IgG1, lambda; also called SRP 2037 Y94D; 2037-B10 VL-Y94D
B26: 2037-B10_Hc-R52D (antibody, human IgG1, lambda, V domains shown)
VH: B1 VH with R52D, D59A
VL: B1 VL
notes: human IgG1, lambda; also called SRP 2037 R52D; 2037-B10_VH-R52D
B27: 2037-B10_Hc-A33D (antibody, human IgG1, V domains shown)
VH: B1 VH with A33D, D59A
VL: B1 VL
notes: human IgG1, lambda; also called SRP 2037 A33D; 2037-B10_VH-A33D

target: T1, human CD3 epsilon (Acro Cat #CDE-H5223) (human, UniProt P07766 23-126); experiment: SPR (Biacore), antibody captured, human CD3 epsilon analyte
T1 construct: Bought recombinant protein; also called rhCD3E
Experimental: (§1) Anti-Fab or anti-Fc polyclonal antibodies were immobilized onto a CM5 chip (GE Life Sciences) using amine coupling chemistry (from Amine Coupling Kit, GE Life Sciences). The immobilization steps were carried out at a flow rate of 25 μl/min in 1×HBS-EP+ buffer (GE Life Sciences; 10× Stock diluted before use). The sensor surfaces were activated for 7 min with a mixture of NHS (0.05 M) and EDC (0.2 M). The Anti-Fab or Anti-Fc antibodies were injected over all 4 flow cells at a concentration of 25 μg/mL in 10 mM sodium acetate, pH 4.5, for 7 min. Ethanolamine (1 M, pH 8.5) was injected for 7 min to block any remaining activated groups.
(§2) Off-rate and kinetic binding experiments were performed at 25° C. using 1×HBS-EP+ buffer. Test and control antibodies were injected over the anti-Fab or anti-Fc surface at concentrations of 5-10 μg/mL for 12 seconds at a flow rate of 10 μL/min on flow cells 2, 3 and 4, followed by a buffer wash for 30 seconds at the same flow rate. […] After capturing ligand (antibody) on the anti-Fc or anti-Fab surface, the analyte (human CD3 epsilon, Acro Cat #CDE-H5223) was bound for 180 seconds, followed by a 600 second dissociation phase at a flow rate of 50 μL/min. Between each ligand capture and analyte binding cycle, regeneration was carried out using two injections of 10 mM Glycine pH 2.0 for 30 seconds at 30 μL/min, followed by a 30 second buffer wash step.
(§3) The data was fit with the Biacore T200 Evaluation software, using a 1-1 Langmuir binding model. KD (affinity, nM) was determined as a ratio of the kinetic rate constants calculated from the fits of the association and dissociation phases.

T1 sequence (P07766 23-126 limits assumed): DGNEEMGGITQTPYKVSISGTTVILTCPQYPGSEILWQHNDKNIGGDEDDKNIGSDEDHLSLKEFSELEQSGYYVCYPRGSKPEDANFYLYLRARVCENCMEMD

Kd	koff	kon	Binder
0.476 nM	0.000251 s⁻¹	527000 M⁻¹ s⁻¹	B1
0.856 nM	0.000289 s⁻¹	337000 M⁻¹ s⁻¹	B2
0.767 nM	0.000207 s⁻¹	270000 M⁻¹ s⁻¹	B3
1.39 nM	0.000377 s⁻¹	271000 M⁻¹ s⁻¹	B4
85 nM	0.000583 s⁻¹	6860 M⁻¹ s⁻¹	B5
5.37 nM	0.000668 s⁻¹	124000 M⁻¹ s⁻¹	B6
0.841 nM	0.000277 s⁻¹	329000 M⁻¹ s⁻¹	B7
0.596 nM	0.000265 s⁻¹	445000 M⁻¹ s⁻¹	B8
0.36 nM	0.000189 s⁻¹	524000 M⁻¹ s⁻¹	B9
1.07 nM	0.000278 s⁻¹	259000 M⁻¹ s⁻¹	B10
0.239 nM	0.00019 s⁻¹	796000 M⁻¹ s⁻¹	B11
–	–	7720 M⁻¹ s⁻¹	B12

target: T1, human CD3 epsilon (Acro Cat #CDE-H5223); experiment: as above; remark: another data set of the same source
Experimental: as §1, §2, §3

Kd	koff	kon	Binder
6.99 nM	0.000115 s⁻¹	16400 M⁻¹ s⁻¹	B13
185 nM	0.000761 s⁻¹	4110 M⁻¹ s⁻¹	B14
1.49 nM	0.000257 s⁻¹	172000 M⁻¹ s⁻¹	B15
15.8 nM	0.000474 s⁻¹	30100 M⁻¹ s⁻¹	B16
3.91 nM	0.00029 s⁻¹	74000 M⁻¹ s⁻¹	B17
5.07 nM	0.000441 s⁻¹	87000 M⁻¹ s⁻¹	B18

target: T2, human CD3 on T-cell lines (CD3-expressing Jurkat cells; HUT78 cells) (human, UniProt P07766 23-207); experiment: flow cytometry, HUT78 cells
T2 construct: On cells it stands in the CD3/TCR complex
T2 sequence (P07766 23-207 limits assumed): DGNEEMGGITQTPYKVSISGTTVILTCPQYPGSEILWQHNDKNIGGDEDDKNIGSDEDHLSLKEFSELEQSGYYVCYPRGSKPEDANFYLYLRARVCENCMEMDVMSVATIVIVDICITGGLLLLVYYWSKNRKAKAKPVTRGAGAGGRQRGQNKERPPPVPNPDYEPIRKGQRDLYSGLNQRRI

HUT78 Bmax	Kd	Binder
2710	126 nM	B13
442	174 nM	B19
2080	2.93 nM	B15
772	312 nM	B20
1800	38.1 nM	B16
2000	121 nM	B17
404	86.4 nM	B21
1190	62.4 nM	B18
523	226 nM	B22

target: T2, human CD3 on T-cell lines …; experiment: flow cytometry, HUT78 cells; remark: another data set of the same source

Bmax (MFI)	Kd	Binder
742 MFI	0.07 nM	B1
857 MFI	0.37 nM	B2
1010 MFI	0.36 nM	B3
896 MFI	0.29 nM	B23
1060 MFI	0.94 nM	B4
953 MFI	0.58 nM	B15
166 MFI	28.6 nM	B5
216 MFI	27.4 nM	B6
119 MFI	6.61 nM	B24
1010 MFI	0.26 nM	B7
1220 MFI	0.43 nM	B8
989 MFI	0.22 nM	B9
1600 MFI	0.7 nM	B25
142 MFI	14.1 nM	B26
1360 MFI	1.27 nM	B10
820 MFI	0.12 nM	B11
88 MFI	21.9 nM	B12
103 MFI	8.57 nM	B27
